Experimental data: PMC2878131 (Science (New York, N.Y.), 2010)

Biological target: T1, preMADH α subunit (Paracoccus denitrificans, UniProt P29894 29-417)
T1 sequence (looked up): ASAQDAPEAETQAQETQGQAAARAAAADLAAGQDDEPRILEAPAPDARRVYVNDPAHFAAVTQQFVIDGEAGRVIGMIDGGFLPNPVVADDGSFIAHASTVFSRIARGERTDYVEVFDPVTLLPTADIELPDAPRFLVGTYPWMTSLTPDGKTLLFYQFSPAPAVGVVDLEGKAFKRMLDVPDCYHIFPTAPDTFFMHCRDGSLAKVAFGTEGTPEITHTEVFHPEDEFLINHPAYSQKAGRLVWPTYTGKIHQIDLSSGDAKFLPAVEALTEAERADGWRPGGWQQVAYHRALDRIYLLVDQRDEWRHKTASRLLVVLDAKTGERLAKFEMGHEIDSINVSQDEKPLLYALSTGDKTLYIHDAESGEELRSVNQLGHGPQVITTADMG
Experiment: crystal structure

binding result: binds
B1: preMADH β subunit (natural protein, Paracoccus denitrificans, UniProt P22619 58-188, looked up)
chain: ADAPAGTDPRAKWVPQDNDIQACDYWRHCSIDGNICDCSGGSLTNCPPGTKLATASWVASCYNPTDGQSYLIAYRDCCGYNVSGRCPCLNTEGELPVYRPEFANDIIWCFGAEDDAMTYHCTISPIVGKAS
modifications: βTrp57 monohydroxylated at the C7 carbon of the indole ring; no cross-link between βTrp57 and βTrp108
